Values belong to the molecule of their own block, whether it stands above or below them. *: point of attachment. AMC = Cc1cc(=O)oc2cc(N*)ccc12
Tests used:
Atmc9 = target: T1, Atmc9 (Arabidopsis thaliana, UniProt Q9FYE1); assay: kcat/Km of artificial substrates of Atmc9; format: biochemical; details: summary of Table 1
T1 construct: it indeed consists of amino acids 184 to 325 (calculated mass 15427 Da); made in house; host or cells: E. coli BL21(DE3), pDEST17, Ni-NTA purified
T1 sequence (Q9FYE1 1-183 limits assumed): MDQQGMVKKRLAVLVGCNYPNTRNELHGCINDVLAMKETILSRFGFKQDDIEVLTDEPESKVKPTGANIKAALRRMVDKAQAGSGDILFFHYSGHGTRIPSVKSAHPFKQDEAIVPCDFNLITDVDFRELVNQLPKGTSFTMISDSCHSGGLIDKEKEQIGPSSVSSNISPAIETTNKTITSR
T1 sequence (Q9FYE1 184-325 limits assumed): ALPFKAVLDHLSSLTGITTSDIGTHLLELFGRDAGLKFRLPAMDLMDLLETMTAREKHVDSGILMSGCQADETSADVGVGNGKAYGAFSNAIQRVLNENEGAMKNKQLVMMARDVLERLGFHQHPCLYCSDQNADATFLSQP
Procedure: The activity assay buffer used was composed of 50 mM MES pH 5.3, 10% (w/v) sucrose, 0.1% (w/v) 3-[(3-cholamidopropyl)dimethylammonio]-1-propanesulfonate [CHAPS], 10 mM DTT.
Release of free AMC was determined in a time course using a FLUOstar Optima fluorescence plate reader (BMB Lab Technologies, Offenburg, Del.). After total hydrolysis of the substrates, kcatlKm was calculated using the following formula: kcat/Km=kobsIEt, where kobs is determined as the decrease per second of the natural logarithm of substrate left, and Et is the concentration of enzyme active sites in the reaction.

metacaspase 3 = target: T2, metacaspase 3 (Arabidopsis thaliana, UniProt Q9FMG1); assay: Cleavage of fluorescent artificial substrates by purified metacaspase 3; format: biochemical; details: assay buffers of pHs ranging from 4.5 to 9.0 (MES 50 mM)
T2 construct: made in house; host or cells: bacterial production, pDEST17 (E. coli by the general method)
T2 sequence (Q9FMG1 1-362 R151K/L157V/V158I/Q177E): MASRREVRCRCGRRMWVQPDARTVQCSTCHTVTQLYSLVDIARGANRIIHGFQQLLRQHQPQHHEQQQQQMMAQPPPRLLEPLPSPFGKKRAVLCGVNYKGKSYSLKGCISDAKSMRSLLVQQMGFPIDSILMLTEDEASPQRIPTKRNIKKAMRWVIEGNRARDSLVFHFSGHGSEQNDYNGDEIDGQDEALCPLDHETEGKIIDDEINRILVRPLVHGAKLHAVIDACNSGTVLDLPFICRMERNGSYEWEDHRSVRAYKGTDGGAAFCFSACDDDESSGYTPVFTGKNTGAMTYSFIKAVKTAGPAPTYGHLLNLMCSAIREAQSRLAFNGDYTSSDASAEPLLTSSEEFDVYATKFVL
Text: (§1) For generation of the prodomain deletion mutant of Arabidopsis thaliana metacaspase 3 (MC3ΔN), residues 1 to 91 were replaced by a methionine residue by PCR, using 5′-[…]-3′ (SEQ ID NO:43) as the forward primer and 5′-[…]-3′ (SEQ ID NO:17) as the reverse primer. 5′ extensions used for Gateway™ (Invitrogen) cloning were 5′-[…]-3′ (SEQ ID NO:44) for forward primers and 5′-[…]-3′ (SEQ ID NO:45) for reverse primers. For bacterial production, the cDNA's were cloned into the bacterial expression vector pDEST17™ (Invitrogen), resulting in the amino-terminal translational addition of the following HIS6 tag-containing sequence: […] (SEQ ID NO:37).
(§2) Activity of purified metacaspase 3 was tested with different fluorescent substrates in assay buffers of pHs ranging from 4.5 to 9.0 (MES 50 mM). The substrates tested were: Ac-DEVD-AMC, Z-VAD-AMC, Boc-GRR-AMC, Boc-GKR-AMC, Z-FR-AMC and H-AFK-AMC. Only Z-FR-AMC was cut by metacaspase 3.

[1] = target: T3, acetyl-Asp-Glu-Val-Asp-aminomethylcoumarin
T3 chain: DEVD

[2] = target: T4, benzyloxycarbonyl-Phe-Arg-AMC
T4 chain: FR

[3] = target: T5, H-Ala-Phe-Lys-7-amido-4-methylcoumarin
T5 chain: AFK

[4] = target: T6, t-butyloxycarbonyl-Gly-Lys-Arg-7-amido-4-methylcoumarin
T6 chain: GKR

[5] = target: T7, benzyloxycarbonyl-Val-Ala-Asp-aminomethylcoumarin
T7 chain: VAD

[6] = target: T8, t-butyloxycarbonyl-Gly-Arg-Arg-7-amido-4-methylcoumarin
T8 chain: GRR

[7] = Activity of full length metacaspase 3 and prodomain deletion mutants in function of the pH, Z-FR-AMC as substrate; format: biochemical; parameters: unit not given here
Text: as §1, §2
A comparison was made between full length (MC3) and a prodomain deletion mutant of wild-type metacaspase 3 (MC3AN) or the C/A mutant (MC3ANC/A). Activity was significant only after addition of the kosmotrope sodium citrate (Na citr., 1 M), in absence of this agent the proteins were not active.
Table 3: Activit y of full length metacaspase 3, and the prodomain deletion mutant in function of the pH, using Z-FR-AMC as substrate. “No enz” was incubated at pH8, without addition of metacaspase.

[8] = Proteolytic activity of Atmc9 against Boc-GKR-AMC at different pH; format: biochemical
Procedure: Assays were performed in 150 μl with 400 ng of purified Atmc9 and 50 μM substrate in an optimized metacaspase 9 assay buffer (50 mM MES pH 5.3, 10% (w/v) sucrose, 0.1% (w/v) 3-[(3-cholamidopropyl)dimethylammonio]-1-propanesulfonate [CHAPS], 10 mM DTT). Time-dependent release of free amido-4-methylcoumarin (AMC) was measured on a Cytofluor 4000 fluorescence microplate reader (PerSeptive Biosystems, Farmingham, Md., USA).
To further characterize Atmc9 biochemically, the purified protein and its cysteine mutant were tested for their ability to cleave the synthetic fluorogenic oligopeptide substrate t-butyloxycarbonyl-GKR-7-amido-4-methylcoumarin (Boc-GKR-AMC) at different pH.

[9] = target: T9, Soybean trypsin inhibitor, P01070
T9 chain: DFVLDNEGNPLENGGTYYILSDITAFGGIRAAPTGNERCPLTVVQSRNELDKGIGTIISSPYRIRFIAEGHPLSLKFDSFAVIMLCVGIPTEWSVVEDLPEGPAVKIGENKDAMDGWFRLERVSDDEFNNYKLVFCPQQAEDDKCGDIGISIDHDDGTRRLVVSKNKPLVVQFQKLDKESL

Z-YVAD-cmk = target: T10, Z-YVAD-cmk
T10 chain: YVAD

[10] = target: T11, Z-FK-2,4,6-trimethylbenzoyloxymethyl ketone
T11 chain: FK

Z-DEVD-cmk = target: T12, Z-DEVD-cmk
T12 chain: DEVD

Z-VAD-fmk = target: T13, Z-VAD-fmk
T13 chain: VAD

Molecule: H-Ala-Phe-Lys-7-amido-4-methylcoumarin (H-Ala-Phe-Lys-{AMC}; SMILES Cc1cc(=O)oc2cc(NC(=O)[C@H](CCCCN)NC(=O)[C@H](Cc3ccccc3)NC(=O)[C@H](C)N)ccc12) [H-AFK-AMC]
quality as substrate for Atmc9 (Atmc9): less efficiently cleaved | cleavage by metacaspase 3 (metacaspase 3): No activity was detected

Activity ([7]; pH 4.5, with sodium citrate (1 M)): 13.37 | Activity ([7]; pH 5, with sodium citrate (1 M)): 8.05 | Activity ([7]; pH 5.5, with sodium citrate (1 M)): 5.48 | Activity ([7]; pH 6, with sodium citrate (1 M)): 5.64 | Activity ([7]; pH 6.5, with sodium citrate (1 M)): 29.58 | Activity ([7]; pH 7, with sodium citrate (1 M)): 36.63 | Activity ([7]; pH 7.5, with sodium citrate (1 M)): 41.61 | Activity ([7]; pH 8, with sodium citrate (1 M)): 26.11 | Activity ([7]; pH 8.5, with sodium citrate (1 M)): 17.93 | Activity ([7]; pH 9, with sodium citrate (1 M)): −2.57
B1: N-terminally HIS6-tagged Atmc3 (bacterially produced) (protein)
chain: MSYYHHHHHHLESTSLYKKAGSTMASRREVRCRCGRRMWVQPDARTVQCSTCHTVTQLYSLVDIARGANRIIHGFQQLLRQHQPQHHEQQQQQMMAQPPPRLLEPLPSPFGKKRAVLCGVNYKGKSYSLKGCISDAKSMRSLLVQQMGFPIDSILMLTEDEASPQRIPTKRNIRKAMRWLVEGNRARDSLVFHFSGHGSQQNDYNGDEIDGQDEALCPLDHETEGKIIDDEINRILVRPLVHGAKLHAVIDACNSGTVLDLPFICRMERNGSYEWEDHRSVRAYKGTDGGAAFCFSACDDDESSGYTPVFTGKNTGAMTYSFIKAVKTAGPAPTYGHLLNLMCSAIREAQSRLAFNGDYTSSDASAEPLLTSSEEFDVYATKFVL
cleavage of fluorescent substrate, pH 4.5 to 9.0 [1]: No activity was detected using the other substrates. | cleavage of fluorescent substrate, pH 4.5 to 9.0 [2]: Only Z-FR-AMC was cut by metacaspase 3. | cleavage of fluorescent substrate, pH 4.5 to 9.0 [3]: No activity was detected using the other substrates. | cleavage of fluorescent substrate, pH 4.5 to 9.0 [4]: No activity was detected using the other substrates. | cleavage of fluorescent substrate, pH 4.5 to 9.0 [5]: No activity was detected using the other substrates. | cleavage of fluorescent substrate, pH 4.5 to 9.0 [6]: No activity was detected using the other substrates.

B2: Atmc9: purified recombinant HIS-tagged Arabidopsis thaliana metacaspase 9, type II (protein, listed as Arabidopsis thaliana)
chain: HHHHHLESTSLYKKAGSTMDQQGMVKKRLAVLVGCNYPNTRNELHGCINDVLAMKETILSRFGFKQDDIEVLTDEPESKVKPTGANIKAALRRMVDKAQAGSGDILFFHYSGHGTRIPSVKSAHPFKQDEAIVPCDFNLITDVDFRELVNQLPKGTSFTMISDSCHSGGLIDKEKEQIGPSSVSSNISPAIETTNKTITSRALPFKAVLDHLSSLTGITTSDIGTHLLELFGRDAGLKFRLPAMDLMDLLETMTAREKHVDSGILMSGCQADETSADVGVGNGKAYGAFSNAIQRVLNENEGAMKNKQLVMMARDVLERLGFHQHPCLYCSDQNADATFLSQP
modifications: N-terminal His6 tag with linker; Atmc9
notes: purified recombinant HIS-tagged Arabidopsis thaliana metacaspase 9, type II
activity at the physiological pH of the cytoplasm ([8]; pH 7.0-7.5): completely abolished | GKR-ase activity ([8]; purified protein, Boc-GKR-AMC at different pH, FIG. 7): clearly has GKR-ase activity

B3: N-terminally HIS6-tagged Atmc9 (bacterially produced) (protein)
chain: MSYYHHHHHHLESTSLYKKAGSTMDQQGMVKKRLAVLVGCNYPNTRNELHGCINDVLAMKETILSRFGFKQDDIEVLTDEPESKVKPTGANIKAALRRMVDKAQAGSGDILFFHYSGHGTRIPSVKSAHPFKQDEAIVPCDFNLITDVDFRELVNQLPKGTSFTMISDSCHSGGLIDKEKEQIGPSSVSSNISPAIETTNKTITSRALPFKAVLDHLSSLTGITTSDIGTHLLELFGRDAGLKFRLPAMDLMDLLETMTAREKHVDSGILMSGCQADETSADVGVGNGKAYGAFSNAIQRVLNENEGAMKNKQLVMMARDVLERLGFHQHPCLYCSDQNADATFLSQP
Activity (%) of Atmc9 with Boc-GKR-AMC as substrate, reagent at 100 µg/ml [9]: 73% | Activity (%) of Atmc9 with Boc-GKR-AMC as substrate, reagent at 100 µM (Z-YVAD-cmk): 100% | kcat/Km [2]: 2900 M⁻¹ s⁻¹ | kcat/Km [3]: 750 M⁻¹ s⁻¹ | kcat/Km [4]: 1900 M⁻¹ s⁻¹ | Activity (%) of Atmc9 with Boc-GKR-AMC as substrate, reagent at 1 µM [10]: 33% | kcat/Km [6]: 2900 M⁻¹ s⁻¹ | Activity (%) of Atmc9 with Boc-GKR-AMC as substrate, reagent at 100 µM (Z-DEVD-cmk): 94% | Activity (%) of Atmc9 with Boc-GKR-AMC as substrate, reagent at 100 µM (Z-VAD-fmk): 87%
